Assays:
[1] = tested on: AncSZ; assay: phosphorylation enrichment, bacterial display (enrichment ratio); higher = better substrate or ligand; peptides without Tyr show the background
[2] = tested on: c-Abl (mouse); assay: as above
[3] = target: FGFR1 (UniProt P11362); assay: as above
[4] = target: Jak2 (UniProt O60674); assay: as above
[5] = target: Fyn (UniProt P06241); assay: as above
[6] = target: Fes (UniProt P07332); assay: as above
[7] = target: FGFR3 (UniProt P22607); assay: as above
[8] = tested on: Fer (mouse); assay: as above
[9] = tested on: c-Src; assay: as above
[10] = target: MERTK (UniProt Q12866); assay: as above
MERTK, sequence (Q12866 whole entry, looked up): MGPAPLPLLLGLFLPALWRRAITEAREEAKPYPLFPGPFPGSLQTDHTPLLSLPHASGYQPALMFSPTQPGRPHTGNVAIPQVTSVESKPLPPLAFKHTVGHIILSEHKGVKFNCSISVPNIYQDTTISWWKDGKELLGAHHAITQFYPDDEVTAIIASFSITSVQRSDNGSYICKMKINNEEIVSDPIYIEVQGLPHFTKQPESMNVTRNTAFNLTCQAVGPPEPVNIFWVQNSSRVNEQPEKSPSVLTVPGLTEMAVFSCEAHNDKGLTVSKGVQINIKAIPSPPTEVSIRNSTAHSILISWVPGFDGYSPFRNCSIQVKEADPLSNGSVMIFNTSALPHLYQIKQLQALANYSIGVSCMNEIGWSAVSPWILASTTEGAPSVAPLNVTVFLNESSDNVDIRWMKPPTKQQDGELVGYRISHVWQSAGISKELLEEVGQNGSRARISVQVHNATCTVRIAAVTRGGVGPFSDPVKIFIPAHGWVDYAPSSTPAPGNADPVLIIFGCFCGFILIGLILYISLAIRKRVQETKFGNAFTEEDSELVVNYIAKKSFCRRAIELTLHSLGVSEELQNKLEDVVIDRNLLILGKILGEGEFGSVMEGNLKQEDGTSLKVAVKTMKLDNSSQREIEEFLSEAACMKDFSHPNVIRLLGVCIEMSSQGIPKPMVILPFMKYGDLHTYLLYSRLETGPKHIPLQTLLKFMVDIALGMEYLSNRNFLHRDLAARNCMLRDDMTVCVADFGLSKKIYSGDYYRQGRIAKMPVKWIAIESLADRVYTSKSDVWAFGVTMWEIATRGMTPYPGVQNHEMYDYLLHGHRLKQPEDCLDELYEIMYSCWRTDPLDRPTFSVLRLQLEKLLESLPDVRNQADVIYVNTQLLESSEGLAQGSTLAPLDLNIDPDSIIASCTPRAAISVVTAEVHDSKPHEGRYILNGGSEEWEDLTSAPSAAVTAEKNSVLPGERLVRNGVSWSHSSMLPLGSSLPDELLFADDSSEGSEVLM

[11] = target: EPHB2 (UniProt P29323); assay: as above
EPHB2, sequence (P29323 whole entry, looked up): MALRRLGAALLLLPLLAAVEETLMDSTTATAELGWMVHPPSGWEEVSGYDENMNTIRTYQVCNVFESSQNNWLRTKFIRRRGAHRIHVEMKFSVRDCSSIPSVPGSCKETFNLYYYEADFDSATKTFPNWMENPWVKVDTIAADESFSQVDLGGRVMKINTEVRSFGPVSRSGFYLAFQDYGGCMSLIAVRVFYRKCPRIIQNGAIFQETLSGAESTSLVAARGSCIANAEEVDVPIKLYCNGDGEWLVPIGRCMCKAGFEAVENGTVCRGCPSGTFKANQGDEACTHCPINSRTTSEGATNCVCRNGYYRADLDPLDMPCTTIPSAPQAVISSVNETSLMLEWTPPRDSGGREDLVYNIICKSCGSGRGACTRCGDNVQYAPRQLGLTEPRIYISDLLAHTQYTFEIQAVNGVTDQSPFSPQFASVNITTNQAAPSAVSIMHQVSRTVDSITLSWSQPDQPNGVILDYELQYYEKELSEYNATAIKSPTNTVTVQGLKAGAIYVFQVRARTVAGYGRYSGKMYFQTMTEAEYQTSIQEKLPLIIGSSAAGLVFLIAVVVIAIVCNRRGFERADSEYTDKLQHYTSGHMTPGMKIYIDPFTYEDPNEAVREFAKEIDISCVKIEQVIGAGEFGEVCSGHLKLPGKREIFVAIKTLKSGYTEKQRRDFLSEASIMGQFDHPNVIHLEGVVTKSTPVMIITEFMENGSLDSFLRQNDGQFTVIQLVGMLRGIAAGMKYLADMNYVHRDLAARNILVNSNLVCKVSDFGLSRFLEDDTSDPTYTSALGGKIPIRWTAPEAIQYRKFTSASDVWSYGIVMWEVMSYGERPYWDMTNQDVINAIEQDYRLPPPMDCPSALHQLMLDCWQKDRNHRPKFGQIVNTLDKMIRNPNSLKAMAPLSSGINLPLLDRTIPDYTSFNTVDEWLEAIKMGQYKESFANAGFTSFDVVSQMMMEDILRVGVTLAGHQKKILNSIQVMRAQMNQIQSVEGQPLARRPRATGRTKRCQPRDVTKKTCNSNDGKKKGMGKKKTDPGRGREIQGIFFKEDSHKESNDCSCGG

[12] = target: Hck (UniProt P08631); assay: as above
[13] = target: EPHB1 (UniProt P54762); assay: as above
EPHB1, sequence (P54762 whole entry, looked up): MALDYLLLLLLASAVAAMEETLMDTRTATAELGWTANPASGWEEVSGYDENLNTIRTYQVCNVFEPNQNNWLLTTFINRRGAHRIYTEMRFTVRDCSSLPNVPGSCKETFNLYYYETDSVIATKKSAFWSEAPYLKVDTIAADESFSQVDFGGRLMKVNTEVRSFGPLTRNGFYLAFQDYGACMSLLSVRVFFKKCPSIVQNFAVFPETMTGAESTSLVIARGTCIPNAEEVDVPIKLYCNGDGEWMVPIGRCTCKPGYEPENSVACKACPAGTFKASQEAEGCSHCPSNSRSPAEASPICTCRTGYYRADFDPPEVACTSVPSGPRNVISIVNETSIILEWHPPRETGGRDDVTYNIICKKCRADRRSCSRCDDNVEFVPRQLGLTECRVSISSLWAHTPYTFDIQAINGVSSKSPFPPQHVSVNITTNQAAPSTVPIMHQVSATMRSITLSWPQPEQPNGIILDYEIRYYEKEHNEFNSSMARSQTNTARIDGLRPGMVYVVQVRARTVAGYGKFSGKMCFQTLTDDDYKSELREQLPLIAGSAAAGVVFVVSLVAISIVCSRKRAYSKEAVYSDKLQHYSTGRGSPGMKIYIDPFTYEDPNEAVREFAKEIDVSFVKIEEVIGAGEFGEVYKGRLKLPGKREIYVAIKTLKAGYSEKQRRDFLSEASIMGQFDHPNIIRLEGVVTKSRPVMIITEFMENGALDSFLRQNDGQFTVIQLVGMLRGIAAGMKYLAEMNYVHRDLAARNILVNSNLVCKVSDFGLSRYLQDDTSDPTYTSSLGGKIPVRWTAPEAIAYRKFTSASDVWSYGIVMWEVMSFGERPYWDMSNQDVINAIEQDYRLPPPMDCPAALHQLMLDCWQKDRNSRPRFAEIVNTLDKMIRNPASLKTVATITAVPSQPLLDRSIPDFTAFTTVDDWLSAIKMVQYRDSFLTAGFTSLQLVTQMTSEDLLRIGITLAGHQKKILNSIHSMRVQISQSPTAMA

[14] = target: c-Src SH2; assay: SH2 binding enrichment of the phosphorylated peptide, bacterial display (enrichment ratio); higher = better substrate or ligand; peptides without Tyr show the background
[15] = target: Grb2 SH2 (UniProt P62993); assay: as above
[16] = target: SHP2-C SH2; assay: as above
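Wherever SH2 binding enrichment of the phosphorylated peptide, bacterial display is given: peptide library displayed on the E. coli surface as eCPX fusions, selected cells deep-sequenced, score is each peptide's frequency after selection divided by its frequency in the input.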
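Wherever phosphorylation enrichment, bacterial display is given: 11-residue human phosphosite peptides and single-mutation variants displayed on the E. coli surface, counted by deep sequencing, each peptide's frequency after selection divided by its frequency in the unselected input library; frequency after pTyr selection over input frequency; kinase dosed for 20-30% of maximal phosphorylation in three min.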

FGFR3, sequence (P22607 whole entry, looked up): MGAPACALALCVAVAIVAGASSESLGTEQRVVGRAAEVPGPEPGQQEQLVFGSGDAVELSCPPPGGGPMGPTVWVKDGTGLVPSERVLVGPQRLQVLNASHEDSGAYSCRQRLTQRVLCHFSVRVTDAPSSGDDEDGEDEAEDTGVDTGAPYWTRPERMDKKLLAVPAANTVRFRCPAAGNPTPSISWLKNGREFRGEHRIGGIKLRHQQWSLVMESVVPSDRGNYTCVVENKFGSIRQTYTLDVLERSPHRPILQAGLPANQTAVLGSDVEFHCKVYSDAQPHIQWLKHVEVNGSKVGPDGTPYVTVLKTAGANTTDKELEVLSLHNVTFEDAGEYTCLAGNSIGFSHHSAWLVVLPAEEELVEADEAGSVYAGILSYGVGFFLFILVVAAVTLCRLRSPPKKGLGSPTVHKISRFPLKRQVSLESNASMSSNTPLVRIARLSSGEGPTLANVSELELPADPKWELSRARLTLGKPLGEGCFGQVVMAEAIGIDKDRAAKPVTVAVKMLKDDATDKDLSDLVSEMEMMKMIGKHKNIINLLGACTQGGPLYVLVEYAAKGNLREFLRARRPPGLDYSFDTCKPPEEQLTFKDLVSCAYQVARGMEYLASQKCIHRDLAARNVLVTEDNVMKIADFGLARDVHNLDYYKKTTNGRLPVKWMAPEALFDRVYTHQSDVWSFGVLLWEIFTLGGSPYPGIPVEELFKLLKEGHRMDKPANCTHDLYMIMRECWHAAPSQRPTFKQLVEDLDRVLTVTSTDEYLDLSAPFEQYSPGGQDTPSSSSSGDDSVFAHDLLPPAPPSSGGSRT
FGFR1, sequence (P11362 whole entry, looked up): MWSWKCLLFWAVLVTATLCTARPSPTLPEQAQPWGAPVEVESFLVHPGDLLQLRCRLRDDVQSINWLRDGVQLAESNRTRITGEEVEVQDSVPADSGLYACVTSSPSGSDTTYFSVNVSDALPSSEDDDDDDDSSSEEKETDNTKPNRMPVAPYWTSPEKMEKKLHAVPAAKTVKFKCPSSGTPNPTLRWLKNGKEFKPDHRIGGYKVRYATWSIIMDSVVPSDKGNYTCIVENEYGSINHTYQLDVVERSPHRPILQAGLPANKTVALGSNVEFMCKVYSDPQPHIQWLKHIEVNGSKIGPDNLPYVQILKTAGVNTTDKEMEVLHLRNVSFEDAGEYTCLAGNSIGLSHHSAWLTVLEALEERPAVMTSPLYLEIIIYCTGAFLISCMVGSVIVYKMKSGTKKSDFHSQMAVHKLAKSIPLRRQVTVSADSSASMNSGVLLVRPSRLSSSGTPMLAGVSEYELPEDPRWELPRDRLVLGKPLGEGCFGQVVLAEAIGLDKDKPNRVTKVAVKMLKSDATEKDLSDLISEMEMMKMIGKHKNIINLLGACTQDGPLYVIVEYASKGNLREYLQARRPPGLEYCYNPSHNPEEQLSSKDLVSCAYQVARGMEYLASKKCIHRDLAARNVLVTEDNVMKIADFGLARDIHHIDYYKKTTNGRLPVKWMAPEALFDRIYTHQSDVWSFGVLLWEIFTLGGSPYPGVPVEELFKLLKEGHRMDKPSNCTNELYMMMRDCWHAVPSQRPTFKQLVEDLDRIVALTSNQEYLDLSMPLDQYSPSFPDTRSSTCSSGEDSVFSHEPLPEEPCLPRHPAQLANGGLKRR

| Sequence | SH2 binding enrichment [14] | SH2 binding enrichment [15] | SH2 binding enrichment [16] | phosphorylation enrichment [1] | phosphorylation enrichment [2] | phosphorylation enrichment [3] | phosphorylation enrichment [4] | phosphorylation enrichment [5] | phosphorylation enrichment [6] | phosphorylation enrichment [7] | phosphorylation enrichment [8] | phosphorylation enrichment [9] | phosphorylation enrichment [10] | phosphorylation enrichment [11] | phosphorylation enrichment [12] | phosphorylation enrichment [13] |
| --- | --- | --- | --- | --- | --- | --- | --- | --- | --- | --- | --- | --- | --- | --- | --- | --- |
| NIEPVYLNMLL [ATR_Y317] | 0.402 | 0.836 | 1.04 | 1.58 | 4.49 | 8.65 | 1.36 | 6.88 | 1.48 | 5.81 | 10.5 | 6.42 | 3.46 | 5.01 | 5.48 | 6.94 |
| TQNGVYSAANY [DDX5_Y535] | 0.838 | 0.842 | 0.536 | 0.69 | 1.04 | 0.454 | 0.5 | 7.45 | 0.699 | 0.514 | 1.87 | 6.11 | 4.8 | 1.85 | 8.68 | 1.26 |
| EKEQNYDLTEV [ECD_Y448] | 0.704 | 0.962 | 0.802 | 1.31 | 0.737 | 0.655 | 1.06 | 0.544 | 1.31 | 0.73 | 0.694 | 0.466 | 0.593 | 0.675 | 0.666 | 0.569 |
| YKTPIYPYLLP [PLD2_Y578_T577I] | 2.4 | 0.953 | 1.04 | 1.14 | 0.899 | 2.43 | 1.51 | 0.787 | 0.857 | 1.53 | 0.695 | 0.707 | 2.08 | 0.744 | 0.628 | 0.816 |
| ENFSEYQEIAV [HEMGN_Y150] | 0.627 | 0.98 | 0.663 | 1.51 | 0.957 | 1.59 | 1.28 | 0.586 | 1.24 | 1.38 | 1.4 | 0.616 | 0.507 | 1.24 | 0.984 | 2.29 |
| QLHRKYCLSPR [HJURP_Y445_E444K] | 0.961 | 1.09 | 0.859 | 0.677 | 0.679 | 0.815 | 0.527 | 0.545 | 0.852 | 0.581 | 0.603 | 0.636 | 0.491 | 0.728 | 0.533 | 0.523 |
| PRAGVYPEKDQ [DNM2_Y626_L621P] | 0.403 | 0.635 | 0.917 | 1.16 | 0.865 | 0.642 | 1.08 | 0.658 | 1.26 | 0.759 | 0.658 | 0.682 | 0.511 | 0.622 | 0.662 | 0.734 |

More lines, main results first:

| SH2 binding enrichment [14] | SH2 binding enrichment [15] | SH2 binding enrichment [16] | Sequence | phosphorylation enrichment [1] | phosphorylation enrichment [2] | phosphorylation enrichment [3] | phosphorylation enrichment [4] | phosphorylation enrichment [5] | phosphorylation enrichment [6] | phosphorylation enrichment [7] | phosphorylation enrichment [8] | phosphorylation enrichment [9] | phosphorylation enrichment [10] | phosphorylation enrichment [11] | phosphorylation enrichment [12] | phosphorylation enrichment [13] |
| --- | --- | --- | --- | --- | --- | --- | --- | --- | --- | --- | --- | --- | --- | --- | --- | --- |
| 4.46 | 0.832 | 0.592 | GNFSGYDDAWD [POLR1C_Y36_YF] | 1.14 | 1.03 | 0.428 | 1.28 | 0.454 | 1.43 | 0.731 | 0.479 | 0.584 | 0.48 | 0.568 | 0.461 | 0.574 |
| 0.493 | 0.848 | 0.678 | ESAAIYNPVIF [RHO_Y301_K296E_YF] | 1.03 | 1.28 | 0.673 | 0.707 | 8.03 | 1.25 | 0.675 | 17.2 | 6.99 | 4.16 | 0.579 | 9.56 | 0.452 |
| 0.47 | 0.771 | 0.626 | KSDVMYTDWKK [ORM1_Y175_V174M] | 0.738 | 0.689 | 0.416 | 0.764 | 0.485 | 0.842 | 0.682 | 0.463 | 0.616 | 0.562 | 0.454 | 2.03 | 0.488 |
| 0.505 | 0.8 | 0.632 | GQDLLYEDEDL [PACS1_Y303_F302L] | 1.6 | 0.855 | 0.559 | 1.18 | 0.674 | 1.43 | 0.889 | 2.38 | 0.613 | 0.595 | 0.733 | 0.626 | 0.812 |
| 1.34 | 2.02 | 1.82 | LRWREYQRQDF [PRKRIP1_Y90_R87W_YF] | 4.24 | 3.64 | 2.28 | 6.28 | 1.01 | 4.93 | 2.67 | 1.67 | 2.67 | 1.69 | 2.29 | 2.04 | 1.91 |
| 0.542 | 0.671 | 0.705 | KIEGVYARDET [RPL35A_Y34] | 0.784 | 0.633 | 0.437 | 0.681 | 0.555 | 0.878 | 0.55 | 0.387 | 0.56 | 0.386 | 0.612 | 0.586 | 0.515 |
| 0.489 | 0.775 | 0.724 | SGGLDYGMVGG [TNRC6B_Y1382_M1380L] | 0.765 | 0.523 | 0.446 | 0.636 | 2.21 | 0.722 | 0.537 | 0.476 | 1.88 | 0.43 | 0.973 | 0.76 | 0.527 |
| 0.58 | 0.888 | 0.757 | VSVVDYVEPSP [TXNRD2_Y70_A66S] | 1.21 | 0.576 | 0.804 | 0.725 | 0.494 | 1.05 | 0.629 | 0.521 | 0.489 | 0.485 | 0.547 | 0.565 | 0.595 |

From the supplement of paper PMC10065799, “High-throughput profiling of sequence recognition by tyrosine kinases and SH2 domains using bacterial peptide display” (eLife, 2023)
